From patent US20250011823A1, “Method for preparing ultra-low molecular weight Dendrobium oligosaccharides by enzymatic hydrolysis and its application” (Zhejiang A & F University, priority 2022, published 2025) come the findings set out here.

Bounds are passed on as bounds.

A short description of this data set: ThDPS glycosidase activity determination (DNS method), hydrolysis of Dendrobium polysaccharides. It is filed as biochemical. Particulars: for enzymatic activity of expression product (hydrolysis of Dendrobium polysaccharides): crude supernatant of recombinant E. coli BL21 (DE3). The method, then:
Enzymatic activity definition: the amount of enzyme that can convert 1micromole of substrate per 1 minute at 37° C. is defined as one unit of enzymatic activity (U).
Enzymatic activity determination: ThDPS glycosidases can decompose Dendrobium polysaccharides into mannan oligosaccharides. The mannan oligosaccharide has reducibility and can undergo a certain chemical reaction with a DNS reagent under alkaline conditions to generate 3-amin-5-nitrosalicylic acid that is brownish-red under boiling conditions. The amount of reducing sugar generated can be measured with a spectrophotometer. The gradation of the color of the acid is related to the content of the reducing sugar.
Specific steps for enzymatic activity determination are as follows: a total reaction system is 2 mL, containing 1 mL of a Dendrobium polysaccharide solution with a concentration of 4 g/L, 200 μL of a phosphate buffer with a concentration of 200 mM, and 10 μL of an enzyme solution. 10 μL of distilled water is added to a control group, and water is replenished to a total volume of 2 mL for all reaction solutions. A mixed reaction solution is incubated at 37° C. for 30 min. After being taken out, the incubated mixed reaction solution is placed in a boiling water bath for 1 min to inactivate the enzymes. 2 mL of a DNS solution is added into each tube, and the tube is placed in the boiling water bath for 3 min, and then is rapidly cooled, and 1 mL of distilled water is added […]. The absorbance is measured at the wavelength of 540 nm to determine the enzymatic activity.
The recombinant bacteria constructed in step 1 were inoculated into a test tube containing 5 mL of LB medium (containing 100 ug/mL ampicillin), and underwent shake-flask culture at 37° C. and 200 r/min for 16 h. As a seed solution, the cultured bacterial solution was transferred into 100 mL of LB liquid medium (containing 100 ug/mL ampicillin) with an inoculum size of 1%, and underwent shake-flask culture at 37° C. and 200 rpm until OD600 was 0.6. 0.1 mM of IPTG was added to induce expression, and shaking culture was carried out for 24 h at 37° C. and 200 rpm. The obtained fermentation broth was centrifuged at 8000×g and 4° C. for 10 min, the supernatant was removed, and bacterial cells were collected. The bacterial cells were resuspended with 8 mL of 50 mM PBS of pH=7.0. After ultrasonic crushing, centrifugation was carried out for 10 min at 4° C. and 12000×g, precipitates were removed, the supernatant was collected for the hydrolysis reaction of Dendrobium polysaccharides, and hydrolysis products were detected by using a DNS method.
By taking Dendrobium polysaccharides as a substrate, the enzymatic property of ThDPS was characterized. • 1. 0.2 g, 0.4 g, 0.8 g, 1.2 g, 1.6 g, 2.0 g, 2.4 g, and 3 g of Dendrobium polysaccharides were (Mw>100000 Da) weighed and dissolved in 1 L of distilled water to prepare Dendrobium polysaccharide solutions, and then 20 μL of an enzyme solution was added and reacted at 37° C. for 30 min. The enzyme solution was an enzyme solution of ThDPS prepared in Example 2 diluted with deionized water to a concentration of 100 μg/mL. […] Optimum temperature determination: 10 g/L Dendrobium polysaccharides were formulated as a reaction substrate. To a reaction system was added 0.4 mL of Dendrobium polysaccharides with a final concentration of 2 g/L, 200 μL of a 500 mM Tris-HCl buffer, and 20 μl of an enzyme solution (providing 10 U of catalytic activity), and 20 μl of distilled water was added to a control group. The water was replenished to a total volume of 2 mL for all reaction solutions. After fair mixing, the mixtures were placed in water baths at 20° C., 30° C., 40° C., 50° C., […], 70° C., 80° C., and […] and incubated for 30 min. The enzyme solution was an enzyme solution of ThDPS prepared in Example 2 diluted with deionized water to a concentration of 100 μg/mL. […]

B1: THGH: T. halotolerans-derived glycosidase expressed in E. coli from the non-optimized gene SEQ ID NO.1 (protein)
chain: MRKRLTVAAATILALLASVFVFAQPANAATGFYVDNGRLYEAGGQEFVIRGVSHPHAWYAQETDSFAGIKSHGANTVRVVLSNGVRWTKNDAADVANVISLCKQNRLICMLEVHDTTGYGEQSGASTLDQAVDYWIEIQSALEGQEDYVLINIGNEPYGNDSATVADWASDTSAAIQRMRDAGFDHTLVVDAPNWGQDWSHTMRDNAGSVYTSDPTGNTVFSIHMYGVYEQGSTVTSYLEHFVNAGLPIMIGEFGHDHSDGNPDEDTIMAEAERLGLGYIGWSWSGNGGGVEYLDMVNNFDADSLTSWGQRIFYGANGISSTAEEATVYGGGAPTDPPTDPPAEGDCSADYTTVGSWGGGFQGEVTVTAGDSAISNWTVSWTFPGGQSVSHGWNASFGGGSPVTASNAPYNGQLGAGQSTTFGFIGSGSAPGSLTLTCTTD
modifications: Thermobifida halotolerans
Take B1: the “enzymatic activity of expression product (hydrolysis of Dendrobium polysaccharides)” value (DNS method) is on record as 68 U/OD bacterial cells. Moreover, under “expression products of recombinant E. coli, DNS method, FIG. 1”, the “hydrolysis activity on the Dendrobium polysaccharides (in words)” value is recorded as “significant hydrolysis activity”.

B2: ThDPS: T. halotolerans-derived glycosidase (SEQ ID NO.3) expressed in E. coli from codon-optimized gene SEQ ID NO.2, with 6× His-tag (protein)
chain: MRKRLTVAAATILALLASVFVFAQPANAATGFYVDNGRLYEAGGQEFVIRGVSHPHAWYAQETDSFAGIKSHGANTVRVVLSNGVRWTKNDAADVANVISLCKQNRLICMLEVHDTTGYGEQSGASTLDQAVDYWIEIQSALEGQEDYVLINIGNEPYGNDSATVADWASDTSAAIQRMRDAGFDHTLVVDAPNWGQDWSHTMRDNAGSVYTSDPTGNTVFSIHMYGVYEQGSTVTSYLEHFVNAGLPIMIGEFGHDHSDGNPDEDTIMAEAERLGLGYIGWSWSGNGGGVEYLDMVNNFDADSLTSWGQRIFYGANGISSTAEEATVYGGGAPTDPPTDPPAEGDCSADYTTVGSWGGGFQGEVTVTAGDSAISNWTVSWTFPGGQSVSHGWNASFGGGSPVTASNAPYNGQLGAGQSTTFGFIGSGSAPGSLTLTCTTD
modifications: 6xHis tag; Thermobifida halotolerans
As to B2, where the note is “50 mM phosphate buffer, 37° C., 30 min”, the “pH of maximum activity” value came to 7.0. Under “2 g/L Dendrobium polysaccharides, Tris-HCl buffer, 30 min, 20-90° C.”, this molecule displayed an optimal reaction temperature of 60 °C. For the same molecule, the “substrate inhibition (in words)” value (Dendrobium polysaccharide 0.2 g/L to 3 g/L) was “no significant substrate inhibition”. In addition, the “increase of expression enzymatic activity level versus THGH without codon optimization” value (codon-optimized sequence, E. coli BL21 (DE3)) worked out at 2.75 times. In addition, where the note is “DNS method”, the “enzymatic activity of expression product (hydrolysis of Dendrobium polysaccharides)” value turned out to be 187 U/OD bacterial cells. Also, the “relative activity (percentage of maximum activity)” value (range of pH 6.0 to 10.0) is “more than 90%”; the “relative activity (percentage of maximum activity)” value (temperature between 40° C. and 60° C.) is reported as ≥ 85%. For the same molecule, the specific enzymatic activity (substrate concentration 2.4 g/L, 37° C., 30 min) turned out to be 5100 U/mg.
